{"source": "paper PMC4585561", "biological_target": "VSD from KvAP (residues -12 to 136)", "assay": "ITC; 350 uM VSTx1 titrated into 36 uM VSD in the cell, 25 °C, 10 mM PIPES-NaOH pH 6.5, 4 mM DM; single-site model"}
{"substance": "VSTx1 (from UniProt P60980 30-63) (peptide)", "values": [{"measurement": "Kd", "value": 1500, "unit": "nM"}, {"measurement": "dH", "value": -4.5, "unit": "kcal/mol"}, {"measurement": "stoichiometry N", "value": 0.97}]}
